Numbering of substitutions follows the chain as printed.
B1: rat anti-human RGM A monoclonal antibody 5F9 (antibody, V domains shown)
VH: EVQLVESGGGLVQPGSSLKLSCVASGFTFSNYGMNWIRQAPKKGLEWIGMIYYDSSEKHYADSVKGRFTISRDNSKNTLYLEMNSLRSEDTAIYYCAKGTTPDYWGQGVMVTVSS
VL: DVVLTQTPVSLSVTLGDQASMSCRSSQSLEYSDGYTFLEWFLQKPGQSPQLLIYEVSNRFSGVPDRFIGSGSGTDFTLKISRVEPEDLGVYYCFQATHDPLTFGSGTKLEIKR
notes: Rat hybridoma antibody; also called ML69-5F9; MAB 5F9
B2: chimeric 5F9 (antibody, V domains shown)
VH: B1 VH
VL: B1 VL
notes: also called chimeric human-rat 5F9; biotinylated chimeric 5F9
B3: humanized antibody h5F9.24 (antibody, V domains shown)
VH: B1 VH with S16G, K19R, V23A, K42G, E82Q, S88A, I93V, V109T
VL: DVVLTQSPLSLPVTLGQPASISCRSSQSLEYSDGYTFLEWFQQRPGQSPRRLIYEVSNRFSGVPDRFSGSGSGTDFTLKISRVEAEDVGVYYCFQATHDPLTFGQGTKLEIKR
B4: humanized antibody h5F9.21 (antibody, V domains shown)
VH: B1 VH with L11V, S16R, K19R, V23A, K42G, E82Q, S88A, I93V, V109T
VL: B3 VL with Q42L, R44K, R50Q, R51L
B5: humanized antibody h5F9.23 (antibody, V domains shown)
VH: B1 VH with S16G, K19R, V23A, K42G, E82Q, S88A, I93V, V109T
VL: B3 VL with R51L
B6: humanized antibody h5F9.25 (antibody, V domains shown)
VH: B1 VH with S16G, K19R, V23A, K42G, E82Q, S88A, I93V, V109T
VL: B3 VL with Q42L, R44K, R50Q, R51L
B7: rat anti-human RGM A monoclonal antibody 8D1 (antibody, V domains shown)
VH: EVQLQQSGPELVKPGTSVKMSCKTSGYTFTSYVMHWVKQKPGQGLEWIGYIIPYNDNTKYNEKFKGKATLTSDKSSSTAYMELSSLTSEDSAVYYCARRNEYYGSSFFDYWGQGTTLTVSS
VL: DIQMTQSPASLSASLEEIVTITCQASQDIDNYLAWYHQKPGKSPRLLIYGATNLADGVPSRFSGSRSGTQFSLKINRLQIEDLGIYYCLQGYIPPRTFGGGTKLELKR
notes: Rat hybridoma antibody; also called ML68-8D1; MAB 8D1

Experiments:
[1] = biological target: T1, recombinant purified human RGM A (human, UniProt Q96B86 48-424, limits assumed); assay: direct ELISA, plate coated with hRGM A at 2 µg/ml, biotinylated antibody in 1:5 dilution steps, streptavidin-HRP, OD 450 nm
T1 construct: Bought recombinant protein (R&D Systems); also called hRGM A; hRGMA
T1 sequence: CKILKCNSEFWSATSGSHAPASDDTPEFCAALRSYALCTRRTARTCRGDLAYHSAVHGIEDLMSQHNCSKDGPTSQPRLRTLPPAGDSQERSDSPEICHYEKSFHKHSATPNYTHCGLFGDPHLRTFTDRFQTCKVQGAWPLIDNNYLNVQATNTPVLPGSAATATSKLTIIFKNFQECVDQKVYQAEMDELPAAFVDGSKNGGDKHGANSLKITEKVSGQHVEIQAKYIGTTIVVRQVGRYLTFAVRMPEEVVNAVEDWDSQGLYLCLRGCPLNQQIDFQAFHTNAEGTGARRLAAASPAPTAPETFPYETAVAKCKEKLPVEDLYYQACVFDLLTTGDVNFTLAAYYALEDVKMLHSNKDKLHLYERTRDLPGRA
Procedure: (i) Direct binding ELISA plates were coated with hRGM A (R&D) at a concentration of 2 μg/ml in Carbonate buffer. The wells were then blocked with 2% Blocking solution (Bio-Rad) for 1 hour at room temperature. Biotinylated antibodies were serially diluted with a 1:5 dilution factor in 0.1% BSNPBS down the plate and incubated for 1 hour at room temperature. The detection reagent was a 1:10,000 dilution of streptavidin-HRP in 0.1% BSNPBS. Detection was done with a TMB reagent, which was stopped with 2N H₂SO₄ and OD was read at 450 nm.
(§1) FAGS was carried out as described in section (ii).

[2] = biological target: T1, recombinant purified human RGM A; assay: SPR (Biacore 3000), antibody captured by anti-human IgG Fc, hRGMA in solution, 25 °C
Procedure: The BIACORE assay (Biacore, Inc, Piscataway, N.J.) determines the affinity of antibodies with kinetic measurements of on-, off-rate constants. Binding of antibodies to recombinant purified human RGMA was determined by surface plasmon resonance-based measurements with a Biacore® 3000 instrument (Biacore® AB, Uppsala, Sweden) using running HBS-EP (10 mM HEPES [pH 7.4], 150 mM NaCl, 3 mM EDTA, and 0.005% surfactant P20) at 25° C. All chemicals were obtained from Biacore® AB (Uppsala, Sweden). Approximately 5000 RU of goat anti-human IgG, (Fey), fragment specific polyclonal antibody (Pierce Biotechnology Inc, Rockford, Ill.) diluted in 10 mM sodium acetate (pH 4.5) was directly immobilized across a CM5 research grade biosensor chip using a standard amine coupling kit according to manufacturers instructions and procedures at 25 μg/ml. Unreacted moieties on the biosensor surface were blocked with ethanolamine. Modified carboxymethyl dextran surface in flowcell 2 and 4 was used as a reaction surface. Unmodified carboxymethyl dextran without goat anti-human IgG in flow cell 1 and 3 was used as the reference surface. Purified antibodies were diluted in HEPES-buffered saline for capture across goat anti-humanIgG specific reaction surfaces. Human antibodies to be captured as a ligand (25 μg/ml) were injected over reaction matrices at a flow rate of 5 μl/min. The association and dissociation rate constants, kₒₙ (unit M⁻¹s⁻¹) and koff (unit s⁻¹) were determined under a continuous flow rate of 25 μl/min. Rate constants were derived by making kinetic binding measurements at […] different antigen concentrations ranging from 0.39-50 nM. For kinetic analysis, rate equations derived from the 1:1 Langmuir binding model were fitted simultaneously to association and dissociation phases of all eight injections (using global fit analysis) with the use of Biaevaluation 4.0.1 software. The equilibrium dissociation constant (unit M) of the reaction between humanized antibodies and recombinant purified human RGMA was then calculated from the kinetic rate constants by the following formula: KD=koff/kₒₙ.

[3] = biological target: T1, recombinant purified human RGM A; assay: competition ELISA on coated hRGMA; competitor biotinylated chimeric 5F9
Procedure: ELISA plates (Costar 3369) were coated overnight at 4° c. with 50 μl/well of 0.25 μg/ml hRGMA in 0.2 M sodium carbonate-bicarbonate buffer, pH 9.4, washed with Wash Buffer (PBS containing 0.1% Tween 20), and blocked for 1 hr at room temperature with 200 μl/well of 2% nonfat dry milk in PBS. After washing with Wash Buffer, a mixture of a biotinylated chimeric 5F9 (0.1 IJg/ml final concentration) and unlabelled competitor test antibody starting at 50 IJg/ml final concentration and serially diluted 5-fold) in 50 μl/well of ELISA buffer was added in duplicate. After incubating the plates for 1 hr at room temperature, and washing with Wash Buffer, bound antibodies were detected using 100 μl/well of 1:10,000 dilution of HRP-conjugated streptavidin (Fitzgerald) in ELISA buffer. After incubating for 1 hr at room temperature, and washing with Wash Buffer, color development was performed by adding 100 μl/well of TMB Buffer (Zymed). After incubating for 15 min at room temperature, color development was stopped by adding 50 μl/well of 1 N hydrochloric acid. Absorbance was read at 490 nm.

recombinant rat RGM A = biological target: T2, recombinant rat RGM A (rat); assay: direct ELISA on rRatRGMA
T2 construct: also called rRatRGMA
T2 chain: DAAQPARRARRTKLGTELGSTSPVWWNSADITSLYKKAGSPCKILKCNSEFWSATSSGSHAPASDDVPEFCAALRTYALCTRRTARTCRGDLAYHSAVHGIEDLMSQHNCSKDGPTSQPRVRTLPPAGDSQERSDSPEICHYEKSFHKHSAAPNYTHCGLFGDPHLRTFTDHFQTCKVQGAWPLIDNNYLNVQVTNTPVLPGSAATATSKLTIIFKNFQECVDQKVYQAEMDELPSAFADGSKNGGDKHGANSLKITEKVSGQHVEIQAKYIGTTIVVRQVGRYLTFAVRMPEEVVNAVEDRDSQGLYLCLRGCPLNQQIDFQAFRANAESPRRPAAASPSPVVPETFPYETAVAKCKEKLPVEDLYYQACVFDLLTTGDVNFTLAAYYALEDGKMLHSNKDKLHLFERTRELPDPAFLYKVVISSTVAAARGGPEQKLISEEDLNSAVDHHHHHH

[4] = biological target: T3, fc-coupled full length human RGM A (47-422) (human); assay: competition ELISA: fc-conjugated full length hRGM A (0.5 µg/ml) binding to coated BMP-2
T3 construct: the legends call the protein fc-coupled full length hRGM A fragment (47-422, counted on hRGM A); also called full length fc-conjugated hRGM A; Human RGM A-fc
T3 sequence (chain, as listed by the source): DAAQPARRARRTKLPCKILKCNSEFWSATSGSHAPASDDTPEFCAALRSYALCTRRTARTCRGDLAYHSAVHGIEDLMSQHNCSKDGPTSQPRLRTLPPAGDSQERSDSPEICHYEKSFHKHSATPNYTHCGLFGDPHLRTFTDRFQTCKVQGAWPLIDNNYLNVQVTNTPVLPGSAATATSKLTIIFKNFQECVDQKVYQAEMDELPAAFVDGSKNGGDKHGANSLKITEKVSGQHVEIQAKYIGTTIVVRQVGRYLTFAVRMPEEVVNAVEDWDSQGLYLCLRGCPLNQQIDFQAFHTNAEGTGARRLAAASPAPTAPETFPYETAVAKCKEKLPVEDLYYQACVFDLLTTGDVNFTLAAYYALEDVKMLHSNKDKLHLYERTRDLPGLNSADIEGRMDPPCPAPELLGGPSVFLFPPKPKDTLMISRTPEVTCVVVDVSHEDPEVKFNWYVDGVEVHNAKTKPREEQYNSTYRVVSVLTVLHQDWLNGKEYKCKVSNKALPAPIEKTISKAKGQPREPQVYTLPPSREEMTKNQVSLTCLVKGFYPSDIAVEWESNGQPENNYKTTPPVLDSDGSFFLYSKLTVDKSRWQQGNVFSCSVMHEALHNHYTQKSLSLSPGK
Procedure: After the incubation, unbound BMP-2 was removed in 3 separate wash steps with PBS containing 0.02% Tween 20. Blocking of the BMP-2 coated plates was done by adding 2001-JI per well of a 3% Bovine serum albumin (BSA), PBS, Tween 20(0.02%) blocking solution. After incubation for 1 h at 37° C., the blocking solution was removed and RGM A fragments or full length protein, conjugated with a human fc tag, with or without antibody, was added. In some experiments antibodies were preincubated with the fc-conjugated hRGM A proteins for 1 h at room temperature. The BMP-2 coated plates were incubated with hRGM A with or without antibodies for 1 hat 37° C. After 3 wash steps with PBS-Tween 20 (0.02%), plates were incubated with a Biotin-labeled anti-human fc antibody (1 mg/ml, diluted 1:200 in PBS containing 0.6% BSA, 0.02% Tween 20), Jackson ImmunoResearch catalog no: 709-065-149, for 1 h at 37° C. Unbound antibody was removed by 3 wash steps with PBS-Tween 20 (0.02%). […] Unbound Peroxidase-complex was removed in 3 subsequent wash steps (PBS-Tween 20 (0.02%) before adding the Peroxidase substrate (Immuno Pure TMB, Pierce#34021). The substrate reaction was stopped 1-30 min after its addition to the wells by 2.5 M H2SO4. Plates were analysed (OD determination) at a wave length of 450 nm using an Anthos photometer. […]

[5] = biological target: T4, fc-coupled human RGM A light chain, fragment 0 (47-168) (human); assay: direct ELISA on hRGMA 47-168/HuIgGFc
T4 construct: also called hRGM A light chain - fc; hRGMA 47-168/HuIgGFc
T4 sequence (chain, as listed by the source): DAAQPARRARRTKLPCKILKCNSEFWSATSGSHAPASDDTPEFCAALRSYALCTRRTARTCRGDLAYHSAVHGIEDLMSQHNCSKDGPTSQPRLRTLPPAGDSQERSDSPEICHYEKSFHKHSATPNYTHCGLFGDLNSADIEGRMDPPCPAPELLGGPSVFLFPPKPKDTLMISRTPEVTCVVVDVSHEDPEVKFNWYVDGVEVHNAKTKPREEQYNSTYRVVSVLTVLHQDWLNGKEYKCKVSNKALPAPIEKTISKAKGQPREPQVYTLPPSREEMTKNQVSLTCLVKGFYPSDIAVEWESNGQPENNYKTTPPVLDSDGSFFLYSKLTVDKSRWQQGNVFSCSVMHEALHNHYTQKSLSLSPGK

[6] = biological target: T5, rat RGM A overexpressed on cells (BAF3 cells) (rat); assay: FACS on BAF3-ratRGMA stable cell line, anti-rat IgG PE
T5 construct: also called BAF3 cells overexpressing ratRGM A
T5 chain: T2 chain
Procedure: (ii) FACS analysis. Stable transfectants of HEK293 cells overexpressing hRGM A or BAF3 cells overexpressing ratRGM A were subjected to staining with unlabelled 5F9 or 8D1 MABs for more than 15 minutes at 4° in 0.1% BSNPBS buffer. Detection was carried out with a mouse anti-rat IgG PE antibody.
as §1

Row | Binder | Kd [2] | koff [2] | kon [2] | IC50 [3] | further results
1 | B1 | – | – | – | – | EC50 (read off the curve) [1]: ~0.08 µg/mL
2 | B2 | 3.09 nM | 0.00236 s⁻¹ | 765000 M⁻¹ s⁻¹ | – | –
3 | B3 | – | – | – | 1.32 µg/mL | –
4 | B4 | 7.59 nM | 0.00269 s⁻¹ | 355000 M⁻¹ s⁻¹ | 0.6 µg/mL | –
5 | B5 | 4.37 nM | 0.00221 s⁻¹ | 507000 M⁻¹ s⁻¹ | 0.55 µg/mL | –
6 | B6 | 5.78 nM | 0.00329 s⁻¹ | 570000 M⁻¹ s⁻¹ | 0.66 µg/mL | –
7 | B7 | – | – | – | – | binding result (recombinant rat RGM A): no binding; binding result [4]: binds; binding result [5]: binds; binding result [6]: no binding; EC50 (read off the curve) [1]: ~0.2 µg/mL

Reference: US20150183871A1 (AbbVie / Abbott, published 2015)
